{"source": "paper PMC9119628", "about": "(PLoS Pathogens, 2022)", "binders": {"B1": {"name": "untagged EBOV VP35 wild type (natural protein)", "chain": "MTTRTKGRGHTAATTQNDRMPGPELSGWISEQLMTGRIPVSDIFCDIENNPGLCYASQMQQTKPNPKTRNSQTQTDPICNHSFEEVVQTLASLATVVQQQTIASESLEQRITSLENGLKPVYDMAKTISSLNRVCAEMVAKYDLLVMTTGRATATAAATEAYWAEHGQPPPGPSLYEESAIRGKIESRDETVPQSVREAFNNLNSTTSLTEENFGKPDISAKDLRNIMYDHLPGFGTAFHQLVQVICKLGKDSNSLDIIHAEFQASLAEGDSPQCALIQITKRVPIFQDAAPPVIHIRSRGDIPRACQKSLRPVPPSPKIDRGWVCVFQLQDGKTLGLKI"}}, "key": {"[1]": {"target": "T1, HA-NP (HA-tagged EBOV nucleoprotein) (Zaire ebolavirus (EBOV), UniProt P18272 1-739)", "T1 sequence": "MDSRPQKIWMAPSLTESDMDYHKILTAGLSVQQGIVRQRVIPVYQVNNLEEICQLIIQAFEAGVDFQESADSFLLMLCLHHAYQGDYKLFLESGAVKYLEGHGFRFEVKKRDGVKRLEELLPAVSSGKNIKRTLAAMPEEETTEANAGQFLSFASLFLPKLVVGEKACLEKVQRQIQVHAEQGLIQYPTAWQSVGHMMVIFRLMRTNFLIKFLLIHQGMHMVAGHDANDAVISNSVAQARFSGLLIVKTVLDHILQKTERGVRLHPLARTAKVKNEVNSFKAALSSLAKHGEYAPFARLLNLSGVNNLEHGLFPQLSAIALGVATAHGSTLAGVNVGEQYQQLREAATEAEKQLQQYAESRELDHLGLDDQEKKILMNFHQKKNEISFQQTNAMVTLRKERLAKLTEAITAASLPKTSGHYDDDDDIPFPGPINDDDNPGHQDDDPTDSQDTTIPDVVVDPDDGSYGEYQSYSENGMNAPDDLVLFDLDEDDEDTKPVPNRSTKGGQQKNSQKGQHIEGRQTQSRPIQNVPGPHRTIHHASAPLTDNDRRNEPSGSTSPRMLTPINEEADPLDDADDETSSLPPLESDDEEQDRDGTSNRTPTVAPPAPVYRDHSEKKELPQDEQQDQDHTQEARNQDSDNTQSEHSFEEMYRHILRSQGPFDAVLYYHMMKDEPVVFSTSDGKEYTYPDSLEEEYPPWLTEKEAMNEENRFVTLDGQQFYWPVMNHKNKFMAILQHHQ", "assay": "co-IP", "settings": "partners not purified"}, "[2]": {"target": "T1, HA-NP (HA-tagged EBOV nucleoprotein)", "assay": "pull-down", "settings": "one partner purified"}}}
{"binder": "B1", "values": [{"measurement": "fold change of binding, T6-KO against wt A549 cells", "setting": "[1]", "result": 6, "unit": "fold"}, {"measurement": "fold change of binding, with OTU-wt co-expression against without OTU", "setting": "[2]", "result": 5, "unit": "fold"}]}
